US10668134B2, “Dental pretreatment material and dental tissue regeneration kit” (National Center for Geriatrics and Gerontology, priority 2016, dated 2020)

How the values were obtained:
[1] = test system: canine dental pulp stem cells; test: Induction of dental pulp and dentin by dental pulp stem cells attached to treated fine-grained dentin particles; assay type: cell-based; conditions: 7 days culture; for cell adhesion to treated dentin: fine-grained dentin treated for 10 minutes (0.05% trypsin; 1 mM EDTA; 0.05% chymotrypsin; 0.1 mg/mL MMP3), HE stain; for induction of the dental pulp stem cells into the dental pulp and dentin: fine-grained dentin treated for 10 minutes, vs untreated dentin
Method: A tooth was extracted from a dog. The cementum and dental pulp of the tooth were removed mechanically. The tooth was then rinsed with tapping water for 3 hours, and then crushed into grains. Fine grains of dentin particles having a diameter of 500 μm to 1,000 μm (fine-grained dentin) were separated by use of a sieve. The fine-grained dentin particles was treated with a mixture liquid containing chloroform and methanol at room temperature for 6 hours, and then, with LiCl (8.0 M) at 4° C. for 24 hours. The fine-grained dentin was then inactivated in distilled water at 55° C. for 24 hours. Thereafter, the fine-grained dentin were divided into six groups: group (i) treated with 0.05% trypsin for 10 minutes; group (ii) treated with 0.05% trypsin and 1 mM EDTA for 10 minutes; a group (iii) treated with 1 mM of EDTA for 10 minutes; group (iv) treated with 0.05% chymotrypsin for 10 minutes; group (v) treated with 0.1 mg/mL MMP3 for 10 minutes; and group (vi) subjected to no treatment. Three fine grains of each of the groups were mixed with 2×10^5 canine dental pulp stem cells. Each mixture underwent centrifugation at 2,000 rpm for 5 minutes, followed by culture in Dulbecco's Modified Eagle's Medium containing 10% FBS at 37° C. for 7 days in the presence of 5% CO2. The culture was then fixed overnight with 4% paraformaldehyde. Paraffin sections were prepared according to a common method, and sliced into 5 μm thick ultrathin sections. The ultrathin sections underwent HE stain.

[2] = test system: TGW cells (human neuroblastoma cell line); test: Neurite outgrowth in TGW cells with culture conditioned medium of senescent dental pulp stem cells; assay type: cell-based; conditions: positive control, 50 ng/μl; after 48 hours
Method: Non-separated 22nd-passage human dental pulp stem cells were brought into a state of 50% confluence. The medium was replaced with a serum-free medium. After 24 hours, the culture conditioned medium was collected. The supernatant was concentrated approximately 40-fold using Amicon Ultra-15 Centrifugal Filter Unit with Ultracel-3 membrane (Millipore, Billerica, Mass.) with 3-kDa molecular cut. Proteinase inhibitors (Halt™ proteinase inhibitor cocktail EDTA-free, Thermo Scientific, Rockford, Ill., USA) was added. The mixture was dispended to be stored at −80° C. Protein content was measured using Bradford Ultra™ (Expedeon, Cambridge, UK).
The culture supernatant (5 μg/ml proteins) prepared in 1 above was added to TGW cells (human neuroblastoma cell line). Further, an ALK5 inhibitor (SB431542, 10 ng/μl) was added to a part of the resultant mixture, and a CCR3 antagonist (SB328437, 5 ng/μl) was added to another part of the resultant mixture. TGW cells to which only the culture supernatant was added was used as a negative control. […] Neurite outgrowth after 48 hours was observed and measured with an inverted microscope (Leica).

[3] = test system: pulpectomized root canal of middle or advanced aged dog; test: Dental pulp regeneration following pulpectomy by autologous transplantation of dental pulp stem cells after trypsin pretreatment of the root canal; assay type: in vivo
Text: Under general anesthesia, anterior teeth of upper and lower jaws of middle or advanced aged dog and young aged dog were pulpectomized. For each tooth, the root canal was enlarged with #50-55 to the apex, and was irrigated alternately with a 5% sodium hypochlorite solution and a 3% hydrogen peroxide solution, followed by washing with physiologic saline. The root canal was completely dried with paper points, and hemorrhage was controlled. The root canal was completely closed with a temporary seal of cement and resin. After 7 to 14 days following the pulpectomy, the temporary seal was removed, and the root canal underwent the alternate washing, and then, washing with physiologic saline. Smear clean (3% EDTA) was then allowed to react for 2 minutes. The root canal was then further washed with physiologic saline, and dried. Thereafter, FRANCETIN⋅T⋅POWDER (2500 USP of crystalized trypsin per 10 mg) (MOCHIDA PHARMACEUTICAL CO., LTD.) at a concentration of 50 μg/ml (0.05%) or 500 μg/ml (0.5%) was allowed to react in the root canal for 10 minutes or 30 minutes. Washing with physiologic saline was then performed. As a control, a tooth on the opposite side was not treated. Further, FRANCETIN⋅T⋅POWDER was mixed with a nanobubble liquid into a 50 μg/ml (0.05%) solution. The solution was allowed to act in a similar manner for 10 minutes, followed by washing with physiologic saline. A root canal filler was prepared by suspending 1×10^6 autologous dental pulp stem cells, which had been membrane-isolated, in 40 μl of a scaffold (Koken Atelocollagen Implant, KOKEN CO., LTD.), and by suspending 3 μl of 100 μg/ml G-CSF (NEUTROGIN, Chugai Pharmaceutical Co., Ltd.). The root canal filler prepared was injected into each root canal such that no air bubbles were contained. The mobilized dental pulp stem cells were isolated using the membrane-isolation-type culture device described above. A hemostatic gelatin sponge (Spongel) was put on the root canal filler. The cavity was completely sealed with cement and resin. On day 14 following the transplantation, the teeth were extracted. According to a common method, 5 μm paraffin sections of longitudinal cross section were prepared. The paraffin sections were then H-E stained to undergo morphological observation. To analyze angiogenesis, the sections were immunostained with BS-1 lectin. Amounts of regenerated dental pulp of four sections were measured for each sample, and an average amount of four samples was determined as the amount of regenerated dental pulp of the sample.

[4] = 50 μg/ml (0.05%), no dental pulp stem cells transplanted

“MMP3: 0.1 mg/mL MMP3, dentin treatment group (v)” was tested, and the “cell adhesion to treated dentin” value [1] was “inferior in cell adhesiveness”.

For O=C(O)CN(CCN(CC(=O)O)CC(=O)O)CC(=O)O [EDTA], the “cell adhesion to treated dentin” value [1] was “a less number of cells adhered” and the “induction of the dental pulp stem cells into the dental pulp and dentin” value [1] was “induction into the dentin was promoted”.

With chymotrypsin the “cell adhesion to treated dentin” value [1] was “inferior in cell adhesiveness”.

B1: GDNF: GDNF (Peproteck), positive control for neurite outgrowth (protein, UniProt P39905 78-211, looked up)
Glial cell line-derived …: SPDKQMAVLPRRERNRQAAAANPENSRGKGRRGQRGKNRGCVLTAIHLNVTDLGLGYETKEELIFRYCSGSCDAAETTYDKILKNLSRNRRLVSDKVGQACCRPIAFDDDLSFLDDNLVYHILRKHSAKRCGCI
For B1, the “Neurite Outgrowth Length” value [2] was 10540.1 ± 4800.7 μm.

B2: trypsin (protein, UniProt P00760 24-246, looked up)
Serine protease 1: IVGGYTCGANTVPYQVSLNSGYHFCGGSLINSQWVVSAAHCYKSGIQVRLGEDNINVVEGNEQFISASKSIVHPSYNSNTLNNDIMLIKLKSAASLNSRVASISLPTSCASAGTQCLISGWGNTKSSGTSYPDVLKCLKAPILSDSSCKSAYPGQITSNMFCAGYLEGGKDSCQGDSGGPVVCSGKLQGIVSWGSGCAQKNKPGVYTKVCNYVSWIKQTIASN
notes: FRANCETIN⋅T⋅POWDER (2500 USP of crystalized trypsin per 10 mg), serine protease dental pretreatment material
For B2, the “increase of the amount of regenerated dental pulp” value ([3]; 50 μg/ml (0.05%) for 10 minutes prior to root canal filler, day 14, vs no pretreatment) was 2.5 times, the “amount of regenerated dental pulp” value ([3]; 50 μg/ml (0.05%) for 30 minutes, compared with same concentration for 10 minutes, day 14) was “doubled” and the dental pulp regeneration [3, 4] was “almost no dental pulp was regenerated”. The “inflammation around the periapical region” value [3, 4] was “no inflammation occurred”, the “amount of regenerated dental pulp” value ([3]; 500 μg/ml (0.5%) for 10 minutes, compared with 50 μg/ml (0.05%), day 14) was “did not cause any significant difference” and the “abnormality at the periapical region” value ([3]; after trypsin pretreatment and transplantation, day 14) was “Abnormality such as inflammation was not observed”. For the same molecule, the “inflammatory cells, necrotic layer in dental pulp formed after treatment” value ([3]; day 14) was “did not show any increase of inflammatory cells, formation of necrotic layer”, the “angiogenesis in the regenerated dental pulp (BS-1 lectin)” value ([3]; day 14, each pretreated sample) was “angiogenesis was observed” and the “calcification in the periapical tissue (Masson Trichrome stain, vimentin immunostaining)” value ([3]; dog 5 years of age, 0.05% trypsin 10 minutes, day 14) was “decomposed the calcification in the periapical tissue”. The “cell adhesion to treated dentin” value [1] was “cell adhesion was facilitated” and the “induction of the dental pulp stem cells into the dental pulp and dentin” value [1] was “more promoted”.
